“And” between values parts separate entries of the source, which are not always exact repeats. Equal entries are not always repeated.
Columns and labels:
[1] = biological target: CTLA-4Fc mutant protein M11 (human (murine residues substituted)); experiment: ELISA; binder 10 ng/ml on coated target
[2] = biological target: CTLA-4Fc mutant protein M6 (human (murine residues substituted)); experiment: ELISA; binder 10 ng/ml on coated target
[3] = biological target: CTLA-4Fc mutant protein M5 (human (murine residues substituted)); experiment: ELISA; binder 10 ng/ml on coated target
[4] = biological target: CTLA-4Fc mutant protein M7 (human (murine residues substituted)); experiment: ELISA; binder 10 ng/ml on coated target
[5] = biological target: CTLA-4Fc mutant protein M8 (human (murine residues substituted)); experiment: ELISA; binder 10 ng/ml on coated target
[6] = biological target: human IgG1-Fc control (human) [IgG part: P01857]; experiment: ELISA; binder 10 ng/ml on coated target
[7] = biological target: wild type human CTLA-4Fc fusion protein (abatacept) (human); experiment: ELISA; binder 10 ng/ml on coated target
[8] = biological target: CTLA-4Fc mutant protein M3 (human (murine residues substituted)); experiment: ELISA; binder 10 ng/ml on coated target
mouse CTLA-4-Fc (mouse) [9] = biological target: mouse CTLA-4-Fc (mouse) (UniProt P09793); experiment: ELISA; binder 10 ng/ml on coated target
[10] = biological target: CTLA-4Fc mutant protein M2 (human (murine residues substituted)); experiment: ELISA; binder 10 ng/ml on coated target
[11] = biological target: CTLA-4Fc mutant protein M10 (human (murine residues substituted)); experiment: ELISA; binder 10 ng/ml on coated target
[12] = biological target: CTLA-4Fc mutant protein M4 (human (murine residues substituted)); experiment: ELISA; binder 10 ng/ml on coated target
[13] = biological target: CTLA-4Fc mutant protein M9 (human (murine residues substituted)); experiment: ELISA; binder 10 ng/ml on coated target
[14] = biological target: CTLA-4Fc mutant protein M1 (human (murine residues substituted)); experiment: ELISA; binder 10 ng/ml on coated target
[15] = biological target: CTLA-4Fc mutant protein M11 (human (murine residues substituted)); experiment: ELISA; binder 0 (blank) on coated target
[16] = biological target: CTLA-4Fc mutant protein M6 (human (murine residues substituted)); experiment: ELISA; binder 0 (blank) on coated target
[17] = biological target: CTLA-4Fc mutant protein M5 (human (murine residues substituted)); experiment: ELISA; binder 0 (blank) on coated target
[18] = biological target: CTLA-4Fc mutant protein M7 (human (murine residues substituted)); experiment: ELISA; binder 0 (blank) on coated target
[19] = biological target: CTLA-4Fc mutant protein M8 (human (murine residues substituted)); experiment: ELISA; binder 0 (blank) on coated target
[20] = biological target: human IgG1-Fc control (human) [IgG part: P01857]; experiment: ELISA; binder 0 (blank) on coated target
[21] = biological target: wild type human CTLA-4Fc fusion protein (abatacept) (human); experiment: ELISA; binder 0 (blank) on coated target
[22] = biological target: CTLA-4Fc mutant protein M3 (human (murine residues substituted)); experiment: ELISA; binder 0 (blank) on coated target
mouse CTLA-4-Fc (mouse) [23] = biological target: mouse CTLA-4-Fc (mouse) (UniProt P09793); experiment: ELISA; binder 0 (blank) on coated target
[24] = biological target: CTLA-4Fc mutant protein M2 (human (murine residues substituted)); experiment: ELISA; binder 0 (blank) on coated target
[25] = biological target: CTLA-4Fc mutant protein M10 (human (murine residues substituted)); experiment: ELISA; binder 0 (blank) on coated target
[26] = biological target: CTLA-4Fc mutant protein M4 (human (murine residues substituted)); experiment: ELISA; binder 0 (blank) on coated target
[27] = biological target: CTLA-4Fc mutant protein M9 (human (murine residues substituted)); experiment: ELISA; binder 0 (blank) on coated target
[28] = biological target: CTLA-4Fc mutant protein M1 (human (murine residues substituted)); experiment: ELISA; binder 0 (blank) on coated target
[29] = biological target: CTLA-4Fc mutant protein M1 (human (murine residues substituted)); experiment: ELISA; binder 100 ng/ml on coated target
[30] = biological target: CTLA-4Fc mutant protein M11 (human (murine residues substituted)); experiment: ELISA; binder 1000 ng/ml on coated target
[31] = biological target: CTLA-4Fc mutant protein M6 (human (murine residues substituted)); experiment: ELISA; binder 1000 ng/ml on coated target
[32] = biological target: CTLA-4Fc mutant protein M5 (human (murine residues substituted)); experiment: ELISA; binder 1000 ng/ml on coated target
[33] = biological target: CTLA-4Fc mutant protein M7 (human (murine residues substituted)); experiment: ELISA; binder 1000 ng/ml on coated target
[34] = biological target: CTLA-4Fc mutant protein M8 (human (murine residues substituted)); experiment: ELISA; binder 1000 ng/ml on coated target
[35] = biological target: human IgG1-Fc control (human) [IgG part: P01857]; experiment: ELISA; binder 1000 ng/ml on coated target
[36] = biological target: wild type human CTLA-4Fc fusion protein (abatacept) (human); experiment: ELISA; binder 1000 ng/ml on coated target
[37] = biological target: CTLA-4Fc mutant protein M3 (human (murine residues substituted)); experiment: ELISA; binder 1000 ng/ml on coated target
mouse CTLA-4-Fc (mouse) [38] = biological target: mouse CTLA-4-Fc (mouse) (UniProt P09793); experiment: ELISA; binder 1000 ng/ml on coated target
[39] = biological target: CTLA-4Fc mutant protein M2 (human (murine residues substituted)); experiment: ELISA; binder 1000 ng/ml on coated target
[40] = biological target: CTLA-4Fc mutant protein M10 (human (murine residues substituted)); experiment: ELISA; binder 1000 ng/ml on coated target
[41] = biological target: CTLA-4Fc mutant protein M4 (human (murine residues substituted)); experiment: ELISA; binder 1000 ng/ml on coated target
[42] = biological target: CTLA-4Fc mutant protein M9 (human (murine residues substituted)); experiment: ELISA; binder 1000 ng/ml on coated target
[43] = biological target: CTLA-4Fc mutant protein M1 (human (murine residues substituted)); experiment: ELISA; binder 1000 ng/ml on coated target

Chain of CTLA-4Fc mutant protein M3 (human (murine residues substituted)) (chain, as listed by the source mutant): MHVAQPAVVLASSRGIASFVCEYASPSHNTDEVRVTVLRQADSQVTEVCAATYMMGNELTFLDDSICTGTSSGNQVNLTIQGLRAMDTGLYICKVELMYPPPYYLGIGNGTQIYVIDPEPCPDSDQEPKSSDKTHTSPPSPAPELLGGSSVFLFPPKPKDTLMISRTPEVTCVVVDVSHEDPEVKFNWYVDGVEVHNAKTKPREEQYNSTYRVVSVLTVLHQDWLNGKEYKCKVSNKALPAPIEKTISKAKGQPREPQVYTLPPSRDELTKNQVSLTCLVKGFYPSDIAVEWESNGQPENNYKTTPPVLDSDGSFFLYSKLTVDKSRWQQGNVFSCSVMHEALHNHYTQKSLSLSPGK
Chain of wild type human CTLA-4Fc fusion protein (abatacept) (human) (chain, as listed by the source limits assumed): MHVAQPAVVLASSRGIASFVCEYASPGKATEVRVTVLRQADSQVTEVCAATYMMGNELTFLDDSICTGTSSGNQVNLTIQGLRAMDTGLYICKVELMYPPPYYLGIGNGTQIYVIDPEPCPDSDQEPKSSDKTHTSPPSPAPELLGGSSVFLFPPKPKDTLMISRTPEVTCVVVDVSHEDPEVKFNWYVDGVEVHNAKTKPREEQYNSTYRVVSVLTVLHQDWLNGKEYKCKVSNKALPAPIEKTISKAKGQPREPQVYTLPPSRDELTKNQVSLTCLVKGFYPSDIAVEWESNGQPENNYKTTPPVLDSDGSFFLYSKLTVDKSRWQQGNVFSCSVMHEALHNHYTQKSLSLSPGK
Chain of CTLA-4Fc mutant protein M9 (human (murine residues substituted)) (chain, as listed by the source mutant): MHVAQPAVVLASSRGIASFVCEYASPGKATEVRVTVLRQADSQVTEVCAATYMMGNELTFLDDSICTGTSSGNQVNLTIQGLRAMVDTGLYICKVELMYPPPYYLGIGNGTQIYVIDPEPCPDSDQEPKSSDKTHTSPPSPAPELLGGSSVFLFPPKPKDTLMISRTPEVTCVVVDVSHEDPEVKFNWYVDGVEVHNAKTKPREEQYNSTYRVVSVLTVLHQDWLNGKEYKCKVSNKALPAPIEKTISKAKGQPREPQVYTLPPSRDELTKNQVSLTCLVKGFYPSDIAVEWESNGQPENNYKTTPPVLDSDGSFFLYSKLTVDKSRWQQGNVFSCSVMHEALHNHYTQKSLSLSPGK
Chain of CTLA-4Fc mutant protein M6 (human (murine residues substituted)) (chain, as listed by the source mutant): as the sequence (chain, as listed by the source limits assumed) above, with A50T counted along it
Chain of CTLA-4Fc mutant protein M11 (human (murine residues substituted)) (chain, as listed by the source mutant): as the sequence (chain, as listed by the source limits assumed) above, with Y103F, L104V, I106M counted along it
Chain of CTLA-4Fc mutant protein M4 (human (murine residues substituted)) (chain, as listed by the source mutant): as the sequence (chain, as listed by the source limits assumed) above, with Q39T, A40N, S42Q, Q43M counted along it
Chain of CTLA-4Fc mutant protein M7 (human (murine residues substituted)) (chain, as listed by the source mutant): as the sequence (chain, as listed by the source limits assumed) above, with D63Y, S64P, I65F, T67S counted along it
Chain of CTLA-4Fc mutant protein M10 (human (murine residues substituted)) (chain, as listed by the source mutant): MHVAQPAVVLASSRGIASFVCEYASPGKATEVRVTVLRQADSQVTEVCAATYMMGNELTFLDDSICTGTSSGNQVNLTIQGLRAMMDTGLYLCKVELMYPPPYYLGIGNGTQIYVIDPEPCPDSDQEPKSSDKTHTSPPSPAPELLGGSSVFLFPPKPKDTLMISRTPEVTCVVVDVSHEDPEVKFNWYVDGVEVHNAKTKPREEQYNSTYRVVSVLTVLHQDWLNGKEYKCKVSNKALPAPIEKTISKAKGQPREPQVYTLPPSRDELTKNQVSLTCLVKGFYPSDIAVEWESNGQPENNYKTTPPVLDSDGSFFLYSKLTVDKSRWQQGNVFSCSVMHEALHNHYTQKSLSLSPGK
Chain of CTLA-4Fc mutant protein M8 (human (murine residues substituted)) (chain, as listed by the source mutant): as the sequence (chain, as listed by the source limits assumed) above, with S70F, S71N, G72E, N73S, Q74R counted along it
Chain of CTLA-4Fc mutant protein M5 (human (murine residues substituted)) (chain, as listed by the source mutant): as the sequence (chain, as listed by the source limits assumed) above, with Y52F, M53T, M54E, G55K, E57T, L58V, T59G counted along it
Chain of CTLA-4Fc mutant protein M2 (human (murine residues substituted)) (chain, as listed by the source mutant): as the sequence (chain, as listed by the source limits assumed) above, with R14H, I16L, V20P counted along it
Chain of mouse CTLA-4-Fc (mouse) (P09793 36-161 limits assumed): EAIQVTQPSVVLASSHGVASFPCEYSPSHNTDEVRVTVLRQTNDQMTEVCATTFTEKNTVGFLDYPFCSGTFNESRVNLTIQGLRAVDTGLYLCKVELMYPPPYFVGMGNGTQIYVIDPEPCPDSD
Chain of CTLA-4Fc mutant protein M1 (human (murine residues substituted)) (chain, as listed by the source mutant): as the sequence (chain, as listed by the source limits assumed) above, with M1I, H2Q, A4T, A7S counted along it

- OD450 [1]: 0.19 OD450 and 0.194 OD450
- OD450 [2]: 1.24 OD450 and 1.88 OD450
- OD450 [3]: 1.85 OD450 and 1.8 OD450
- OD450 [4]: 0.837 OD450 and 0.884 OD450
- OD450 [5]: 1.27 OD450 and 1.45 OD450
- OD450 [6]: 0.201 OD450 and 0.182 OD450
- OD450 [7]: 1.71 OD450 and 1.8 OD450
- OD450 [8]: 0.623 OD450 and 0.593 OD450
- OD450 (mouse CTLA-4-Fc (mouse) [9]): 0.201 OD450 and 0.18 OD450
- OD450 [10]: 0.469 OD450 and 0.333 OD450
- OD450 [11]: 0.157 OD450
- OD450 [12]: 0.817 OD450 and 0.563 OD450
- OD450 [13]: 0.158 OD450 and 0.213 OD450
- OD450 [14]: 2.69 OD450 and 2.78 OD450
- OD450 [15]: 0.171 OD450 and 0.155 OD450
- OD450 [16]: 0.183 OD450 and 0.177 OD450
- OD450 [17]: 0.177 OD450 and 0.229 OD450
- OD450 [18]: 0.186 OD450 and 0.142 OD450
- OD450 [19]: 0.368 OD450 and 0.217 OD450
- OD450 [20]: 0.198 OD450 and 0.184 OD450
- OD450 [21]: 0.18 OD450 and 0.177 OD450
- OD450 [22]: 0.183 OD450 and 0.167 OD450
- OD450 (mouse CTLA-4-Fc (mouse) [23]): 0.19 OD450 and 0.189 OD450
- OD450 [24]: 0.377 OD450 and 0.538 OD450
- OD450 [25]: 0.215 OD450 and 0.114 OD450
- OD450 [26]: 0.22 OD450 and 0.18 OD450
- OD450 [27]: 0.15 OD450 and 0.293 OD450
- OD450 [28]: 0.222 OD450
- OD450 [29]: 3.25 OD450 and 3.24 OD450
- OD450 [30]: 2.89 OD450 and 2.91 OD450
- OD450 [31]: 3.28 OD450 and 3.32 OD450
- OD450 [32]: 3.41 OD450 and 3.54 OD450
- OD450 [33]: 3.3 OD450 and 3.35 OD450
- OD450 [34]: 3.35 OD450 and 3.44 OD450
- OD450 [35]: 1.39 OD450 and 1.47 OD450
- OD450 [36]: 3.57 OD450 and 3.67 OD450
- OD450 [37]: 3.33 OD450 and 3.3 OD450
- OD450 (mouse CTLA-4-Fc (mouse) [38]): 0.942 OD450 and 0.94 OD450
- OD450 [39]: 2.83 OD450 and 2.75 OD450
- OD450 [40]: 0.945 OD450 and 0.941 OD450
- OD450 [41]: 3.08 OD450 and 3.15 OD450
- OD450 [42]: 1.12 OD450 and 1.18 OD450
- OD450 [43]: 3.51 OD450
Substance: chimeric L3D10 anti-human CTLA-4 antibody

Reference: patent US20190263889A1
